The results in this text go back to article PMC4928587 (Molecular cancer research : MCR, 2009).

The target in the assay is GST/BRCA1-1293–1863 (human, UniProt P38398 1293-1863). Kind of assay: pull-down.
Sequence of GST/BRCA1-1293–1863 (P38398 1293-1863): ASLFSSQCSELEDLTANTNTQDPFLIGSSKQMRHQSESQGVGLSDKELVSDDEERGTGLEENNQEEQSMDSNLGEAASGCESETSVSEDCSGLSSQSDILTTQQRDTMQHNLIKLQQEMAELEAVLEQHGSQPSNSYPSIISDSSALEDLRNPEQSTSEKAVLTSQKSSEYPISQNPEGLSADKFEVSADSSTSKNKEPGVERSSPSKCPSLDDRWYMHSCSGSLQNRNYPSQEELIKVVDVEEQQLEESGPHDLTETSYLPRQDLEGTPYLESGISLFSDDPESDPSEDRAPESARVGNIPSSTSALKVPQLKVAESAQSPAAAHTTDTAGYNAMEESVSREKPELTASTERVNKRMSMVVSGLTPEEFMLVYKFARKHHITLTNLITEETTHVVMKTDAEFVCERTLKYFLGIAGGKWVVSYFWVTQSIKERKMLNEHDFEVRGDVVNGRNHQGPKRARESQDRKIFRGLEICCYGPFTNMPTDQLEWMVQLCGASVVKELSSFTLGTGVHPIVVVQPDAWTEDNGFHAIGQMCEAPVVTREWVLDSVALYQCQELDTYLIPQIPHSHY

B1: MBP/PALB2-1–70 (domain or fragment, human, UniProt Q86YC2 1-70, looked up)
chain: MDEPPGKPLSCEEKEKLKEKLAFLKREYSKTLARLQRAQRAEKIKHSIKKTVEEQDCLSQQDLSPQLKHS
Take B1: the binding result is on record as “binds”.
